Measured values as given in paper PMC2756588.

T1: Bud14, P27637
T1 sequence (P27637 247-328, looked up): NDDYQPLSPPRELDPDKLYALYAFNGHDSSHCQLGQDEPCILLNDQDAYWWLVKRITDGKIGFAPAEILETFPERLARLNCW

T2: Boi2, P39969
T2 sequence (P39969 32-116, looked up): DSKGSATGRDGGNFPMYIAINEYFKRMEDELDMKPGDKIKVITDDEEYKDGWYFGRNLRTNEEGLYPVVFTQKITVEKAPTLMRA

T3: Sla1-3, P32790
T3 sequence (P32790 344-424, looked up): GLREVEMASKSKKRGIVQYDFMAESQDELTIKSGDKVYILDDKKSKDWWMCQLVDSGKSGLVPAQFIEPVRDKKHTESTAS

T4: Sla1-2, P32790
T4 sequence (P32790 60-140, looked up): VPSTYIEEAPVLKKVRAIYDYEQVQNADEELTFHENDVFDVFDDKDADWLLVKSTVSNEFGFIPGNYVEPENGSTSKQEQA

T5: Cyk3, Q07533
T5 sequence (Q07533 1-83, looked up): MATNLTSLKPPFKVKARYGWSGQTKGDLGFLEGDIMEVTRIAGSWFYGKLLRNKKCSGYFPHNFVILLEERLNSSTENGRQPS

T6: Abp1, P15891
T6 sequence (P15891 535-592, looked up): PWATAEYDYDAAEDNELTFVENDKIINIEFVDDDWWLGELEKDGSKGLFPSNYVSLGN

T7: Bzz1-1, P38822
T7 sequence (P38822 478-572, looked up): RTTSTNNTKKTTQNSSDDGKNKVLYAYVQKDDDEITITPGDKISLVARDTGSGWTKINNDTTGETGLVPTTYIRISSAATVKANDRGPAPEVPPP

T8: Pin3, Q06449
T8 sequence (Q06449 53-122, looked up): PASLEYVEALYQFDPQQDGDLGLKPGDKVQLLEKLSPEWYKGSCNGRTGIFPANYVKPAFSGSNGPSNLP

T9: Boi1, P38041
T9 sequence (P38041 1-86, looked up): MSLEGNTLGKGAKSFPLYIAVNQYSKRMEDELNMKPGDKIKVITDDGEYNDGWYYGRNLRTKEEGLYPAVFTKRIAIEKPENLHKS

T10: Hof1, Q05080
T10 sequence (Q05080 590-669, looked up): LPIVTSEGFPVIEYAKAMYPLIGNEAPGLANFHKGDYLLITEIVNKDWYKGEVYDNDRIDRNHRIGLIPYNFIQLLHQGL

T11: Myo5, Q04439
T11 sequence (Q04439 1072-1160, looked up): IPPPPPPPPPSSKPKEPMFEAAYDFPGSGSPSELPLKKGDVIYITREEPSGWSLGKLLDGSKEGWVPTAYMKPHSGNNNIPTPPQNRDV

T12: Lsb1, P53281
T12 sequence (P53281 45-122, looked up): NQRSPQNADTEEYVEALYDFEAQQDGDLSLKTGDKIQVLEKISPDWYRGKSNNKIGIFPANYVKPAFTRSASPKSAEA

T13: Cdc25, P04821
T13 sequence (P04821 50-136, looked up): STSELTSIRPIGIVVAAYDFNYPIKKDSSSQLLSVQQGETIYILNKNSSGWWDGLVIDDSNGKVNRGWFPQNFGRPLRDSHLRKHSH

T14: Pex13, P80667
T14 sequence (P80667 295-386, looked up): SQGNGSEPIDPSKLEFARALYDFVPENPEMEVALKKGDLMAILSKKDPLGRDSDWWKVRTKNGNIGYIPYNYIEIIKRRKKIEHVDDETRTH

T15: Bzz1-2, P38822
T15 sequence (P38822 568-633, looked up): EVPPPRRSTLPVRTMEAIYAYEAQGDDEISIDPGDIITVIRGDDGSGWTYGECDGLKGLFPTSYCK

T16: Lsb4, P32793
T16 sequence (P32793 402-468, looked up): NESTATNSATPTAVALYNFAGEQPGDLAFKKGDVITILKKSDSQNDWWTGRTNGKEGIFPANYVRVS

T17: Nbp2, Q12163
T17 sequence (Q12163 103-180, looked up): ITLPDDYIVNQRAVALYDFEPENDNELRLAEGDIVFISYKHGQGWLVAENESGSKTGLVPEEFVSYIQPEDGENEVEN

T18: Bbc1, P47068
T18 sequence (P47068 1-78, looked up): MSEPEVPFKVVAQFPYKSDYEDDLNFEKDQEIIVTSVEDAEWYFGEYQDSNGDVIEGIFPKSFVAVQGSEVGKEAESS

T19: Lsb3, P43603
T19 sequence (P43603 385-451, looked up): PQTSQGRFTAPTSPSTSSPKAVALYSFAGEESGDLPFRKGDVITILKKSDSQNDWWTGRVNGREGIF

T20: Fus1, P11710
T20 sequence (P11710 432-512, looked up): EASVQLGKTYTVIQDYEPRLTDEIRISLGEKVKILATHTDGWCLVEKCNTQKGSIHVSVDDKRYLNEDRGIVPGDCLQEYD

T21: Hse1, P38753
T21 sequence (P38753 208-285, looked up): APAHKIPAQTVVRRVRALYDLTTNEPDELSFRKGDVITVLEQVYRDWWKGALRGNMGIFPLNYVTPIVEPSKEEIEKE


target: T1, Bud14, P27637; assay: SPOT array; settings: median of control spots 956

Row | Binder | SPOT intensity
1 | AHFQPQRTAPKPPIS | 1
2 | RPVPRRPSQPLNTLS | 11
3 | IAPIPMPKPNPTHIS | 0

target: T2, Boi2, P39969; assay: SPOT array; settings: median of control spots 1161

Row | Binder | SPOT intensity
4 | AHFQPQRTAPKPPIS | 0
5 | RPVPRRPSQPLNTLS | 1
6 | IAPIPMPKPNPTHIS | 1

target: T3, Sla1-3, P32790; assay: SPOT array; settings: median of control spots 5475

Row | Binder | SPOT intensity
7 | AHFQPQRTAPKPPIS | 4
8 | RPVPRRPSQPLNTLS | 31
9 | IAPIPMPKPNPTHIS | 0

target: Sho1, P40073; assay: SPOT array; settings: median of control spots 1148
Sequence (P40073 287-367): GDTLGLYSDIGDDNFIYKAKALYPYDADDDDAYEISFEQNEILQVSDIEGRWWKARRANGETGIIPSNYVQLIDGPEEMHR

Row | Binder | SPOT intensity
10 | AHFQPQRTAPKPPIS | 1
11 | RPVPRRPSQPLNTLS | 95
12 | IAPIPMPKPNPTHIS | 0

target: T4, Sla1-2, P32790; assay: SPOT array; settings: median of control spots 712

Row | Binder | SPOT intensity
13 | AHFQPQRTAPKPPIS | 0
14 | RPVPRRPSQPLNTLS | 0
15 | IAPIPMPKPNPTHIS | 1

target: T5, Cyk3, Q07533; assay: SPOT array; settings: median of control spots 1451

Row | Binder | SPOT intensity
16 | AHFQPQRTAPKPPIS | 0
17 | RPVPRRPSQPLNTLS | 1
18 | IAPIPMPKPNPTHIS | 1

target: T6, Abp1, P15891; assay: SPOT array; settings: median of control spots 935

Row | Binder | SPOT intensity
19 | AHFQPQRTAPKPPIS | 19
20 | RPVPRRPSQPLNTLS | 125
21 | IAPIPMPKPNPTHIS | 44

target: T7, Bzz1-1, P38822; assay: SPOT array; settings: median of control spots 4446

Row | Binder | SPOT intensity
22 | AHFQPQRTAPKPPIS | 1
23 | RPVPRRPSQPLNTLS | 0
24 | IAPIPMPKPNPTHIS | 0

target: GST; assay: SPOT array; settings: median of control spots 978

Row | Binder | SPOT intensity
25 | AHFQPQRTAPKPPIS | 0
26 | RPVPRRPSQPLNTLS | 0
27 | IAPIPMPKPNPTHIS | 0

target: T8, Pin3, Q06449; assay: SPOT array; settings: median of control spots 2171

Row | Binder | SPOT intensity
28 | AHFQPQRTAPKPPIS | 5
29 | RPVPRRPSQPLNTLS | 26
30 | IAPIPMPKPNPTHIS | 43

target: T9, Boi1, P38041; assay: SPOT array; settings: median of control spots 1162

Row | Binder | SPOT intensity
31 | AHFQPQRTAPKPPIS | 0
32 | RPVPRRPSQPLNTLS | 0
33 | IAPIPMPKPNPTHIS | 0

target: T10, Hof1, Q05080; assay: SPOT array; settings: median of control spots 4086

Row | Binder | SPOT intensity
34 | AHFQPQRTAPKPPIS | 0
35 | RPVPRRPSQPLNTLS | 13
36 | IAPIPMPKPNPTHIS | 0

target: T11, Myo5, Q04439; assay: SPOT array; settings: median of control spots 471

Row | Binder | SPOT intensity
37 | AHFQPQRTAPKPPIS | 104
38 | RPVPRRPSQPLNTLS | 0
39 | IAPIPMPKPNPTHIS | 7

target: Myo3, P36006; assay: SPOT array; settings: median of control spots 468

Row | Binder | SPOT intensity
40 | AHFQPQRTAPKPPIS | 413
41 | RPVPRRPSQPLNTLS | 5
42 | IAPIPMPKPNPTHIS | 22

target: T12, Lsb1, P53281; assay: SPOT array; settings: median of control spots 388

Row | Binder | SPOT intensity
43 | AHFQPQRTAPKPPIS | 17
44 | RPVPRRPSQPLNTLS | 94
45 | IAPIPMPKPNPTHIS | 2

target: T13, Cdc25, P04821; assay: SPOT array; settings: median of control spots 969

Row | Binder | SPOT intensity
46 | AHFQPQRTAPKPPIS | 5
47 | RPVPRRPSQPLNTLS | 37
48 | IAPIPMPKPNPTHIS | 0

target: T14, Pex13, P80667; assay: SPOT array; settings: median of control spots 1341

Row | Binder | SPOT intensity
49 | AHFQPQRTAPKPPIS | 13
50 | RPVPRRPSQPLNTLS | 348
51 | IAPIPMPKPNPTHIS | 54

target: T15, Bzz1-2, P38822; assay: SPOT array; settings: median of control spots 4538

Row | Binder | SPOT intensity
52 | AHFQPQRTAPKPPIS | 0
53 | RPVPRRPSQPLNTLS | 13
54 | IAPIPMPKPNPTHIS | 0

target: T16, Lsb4, P32793; assay: SPOT array; settings: median of control spots 397

Row | Binder | SPOT intensity
55 | AHFQPQRTAPKPPIS | 4
56 | RPVPRRPSQPLNTLS | 163
57 | IAPIPMPKPNPTHIS | 9

target: T17, Nbp2, Q12163; assay: SPOT array; settings: median of control spots 357

Row | Binder | SPOT intensity
58 | AHFQPQRTAPKPPIS | 750
59 | RPVPRRPSQPLNTLS | 71
60 | IAPIPMPKPNPTHIS | 1

target: Bem1-1, P29366; assay: SPOT array; settings: median of control spots 4282
Sequence (P29366 55-141): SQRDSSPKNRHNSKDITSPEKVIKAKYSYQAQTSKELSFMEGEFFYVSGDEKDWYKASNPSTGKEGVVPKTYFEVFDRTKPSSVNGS

Row | Binder | SPOT intensity
61 | AHFQPQRTAPKPPIS | 0
62 | RPVPRRPSQPLNTLS | 0
63 | IAPIPMPKPNPTHIS | 0

target: T18, Bbc1, P47068; assay: SPOT array; settings: median of control spots 796

Row | Binder | SPOT intensity
64 | AHFQPQRTAPKPPIS | 101
65 | RPVPRRPSQPLNTLS | 423
66 | IAPIPMPKPNPTHIS | 0

target: T19, Lsb3, P43603; assay: SPOT array; settings: median of control spots 406

Row | Binder | SPOT intensity
67 | AHFQPQRTAPKPPIS | 0
68 | RPVPRRPSQPLNTLS | 138
69 | IAPIPMPKPNPTHIS | 0

target: Rvs167, P39743; assay: SPOT array; settings: median of control spots 2707
Sequence (P39743 419-482): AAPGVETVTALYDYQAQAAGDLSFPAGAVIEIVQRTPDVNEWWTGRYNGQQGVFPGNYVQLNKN

Row | Binder | SPOT intensity
70 | AHFQPQRTAPKPPIS | 0
71 | RPVPRRPSQPLNTLS | 4060
72 | IAPIPMPKPNPTHIS | 0

target: Bem1-2, P29366; assay: SPOT array; settings: median of control spots 4347
Sequence (P29366 139-227): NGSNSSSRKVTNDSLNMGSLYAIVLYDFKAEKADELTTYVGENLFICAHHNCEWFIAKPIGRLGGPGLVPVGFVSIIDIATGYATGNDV

Row | Binder | SPOT intensity
73 | AHFQPQRTAPKPPIS | 1860
74 | RPVPRRPSQPLNTLS | 75
75 | IAPIPMPKPNPTHIS | 0

target: T20, Fus1, P11710; assay: SPOT array; settings: median of control spots 1200

Row | Binder | SPOT intensity
76 | AHFQPQRTAPKPPIS | 0
77 | RPVPRRPSQPLNTLS | 0
78 | IAPIPMPKPNPTHIS | 0

target: T21, Hse1, P38753; assay: SPOT array; settings: median of control spots 1727

Row | Binder | SPOT intensity
79 | AHFQPQRTAPKPPIS | 0
80 | RPVPRRPSQPLNTLS | 34
81 | IAPIPMPKPNPTHIS | 0
